± gives the standard deviation of the averaged measurements.
B1: library; a variant is named by its letters at N, in order (parent)
chain: GCUGUCACCGGUGCUUGGUACGUUAUAUUCAGCCGGUCUGAUGAGUCUNNNNNNAGACGAAACAGC

Experiments:
[1] = variants of: B1; test: normalized RNA/DNA level without ligand (relative to sTRSVctl = 100) (log10 (% of sTRSVctl)); HEK293T overexpressing SLC46A1; higher = less ribozyme self-cleavage, higher mRNA level; settings: without (6R,S)-folinic acid; ligand present: no
Summary of the method: (§1)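 HEK293T cells received ligand, where used, 1 h before being transfected with 4 µg per 6-well well of library plasmids encoding reporter-linked ribozyme switches. After 72 h, RNA was extracted with EDTA and sequenced. RNA level was derived from RNA reads per DNA read, normalized to a spiked-in non-cleaving sequence or the top sequences, then scaled and log-transformed. Values were ×100 then log10, the top set was 25 sequences, and the minimum was 100 DNA reads.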

[2] = variants of: B1; test: normalized RNA/DNA level with ligand (relative to sTRSVctl = 100) (log10 (% of sTRSVctl)); HEK293T overexpressing SLC46A1; ligand concentration (+) RNA-Seq: 6 mM; higher = less ribozyme self-cleavage, higher mRNA level; settings: with (6R,S)-folinic acid; ligand present: yes
Summary of the method: as §1

Variant | normalized RNA/DNA level without ligand (log10) [1] | normalized RNA/DNA level with ligand (log10) [2]
AAGACC | 2.03 ± 0.033 | 2.03 ± 0.03
AAGACU | 2.01 ± 0.0024 | 2.02 ± 0.04
AACCAC | 2.007 ± 0.0059 | 1.963 ± 0.015
CACCGU | 2.02 ± 0.023 | 2.03 ± 0.033
CACCGA | 2.021 ± 0.0036 | 2.04 ± 0.04
CACCGC | 2.047 ± 0.0053 | 2.04 ± 0.034
CACCGG | 1.9715 ± 0.00014 | 2.01 ± 0.0069
GACGGC | 2.03 ± 0.016 | 2.04 ± 0.072
CACUUU | 1.985 ± 0.013 | 1.98 ± 0.036
CACUUG | 2.032 ± 0.0036 | 2.03 ± 0.0041
CACUUA | 1.952 ± 0.0058 | 1.97 ± 0.058
CACUUC | 2.04 ± 0.03 | 2.026 ± 0.012
AACCGA | 1.998 ± 0.014 | 1.99 ± 0.051
AACCGC | 2.04 ± 0.029 | 2.013 ± 0.019
AACCGU | 1.9935 ± 0.00042 | 2 ± 0.032
UACUGA | 1.9244 ± 0.0015 | 2.03 ± 0.034
UACUGU | 1.936 ± 0.0083 | 1.98 ± 0.02
CAGCUA | 2.02 ± 0.0022 | 2.04 ± 0.022
CAGCUC | 2.05 ± 0.023 | 2.035 ± 0.013
CAGCUU | 1.987 ± 0.0035 | 2.01 ± 0.026
GAGGAG | 1.9 ± 0.013 | 2.031 ± 0.017
GAGGAC | 1.947 ± 0.013 | 2.014 ± 0.016
GAGGAA | 1.952 ± 0.0031 | 2.01 ± 0.03

Variant | normalized RNA/DNA level without ligand (log10) [1] | normalized RNA/DNA level with ligand (log10) [2]
GACCCA | 2.018 ± 0.0089 | 2 ± 0.04
GACCCG | 2.031 ± 0.0022 | 2 ± 0.06
GACCCC | 2.017 ± 0.0088 | 2 ± 0.045
UACUCC | 2.051 ± 0.012 | 2.034 ± 0.0051
UACUCU | 2.027 ± 0.0077 | 2.05 ± 0.028
UACUCA | 1.9962 ± 0.00016 | 1.98 ± 0.038
UACUCG | 1.8448 ± 0.00067 | 1.99 ± 0.031
UACAGC | 1.991 ± 0.0074 | 2.02 ± 0.05
AAGCCC | 2.0608 ± 0.0014 | 2.04 ± 0.039
AAGCCA | 2.009 ± 0.0029 | 2.03 ± 0.022
AAGCCG | 1.988 ± 0.0067 | 2.01 ± 0.041
GACGAC | 1.956 ± 0.004 | 2.009 ± 0.018
AAGCAG | 1.925 ± 0.0059 | 2 ± 0.045
AAGCAC | 2.022 ± 0.0075 | 1.98 ± 0.045
UAGACC | 2.039 ± 0.0018 | 2.013 ± 0.016
CACCAC | 1.998 ± 0.019 | 1.99 ± 0.026
CACCAA | 1.97 ± 0.016 | 1.99 ± 0.022
CACCAG | 1.977 ± 0.019 | 2 ± 0.036
UACGCU | 2.0313 ± 0.00036 | 2.043 ± 0.0085
UACGCA | 1.992 ± 0.013 | 2.03 ± 0.037
UACGCC | 2.053 ± 0.0091 | 2.07 ± 0.022
UACGCG | 1.79 ± 0.03 | 1.98 ± 0.058
GACAGC | 2.002 ± 0.0097 | 2.03 ± 0.046

Variant | normalized RNA/DNA level without ligand (log10) [1] | normalized RNA/DNA level with ligand (log10) [2]
GACAGU | 1.99 ± 0.025 | 2 ± 0.053
UACGUU | 1.971 ± 0.0048 | 1.997 ± 0.014
UACGUA | 1.918 ± 0.0029 | 1.98 ± 0.037
UACGUC | 2.07 ± 0.019 | 2.06 ± 0.066
GACUAA | 1.977 ± 0.008 | 1.98 ± 0.043
CACAGU | 1.999 ± 0.017 | 2 ± 0.077
CACAGC | 1.978 ± 0.0044 | 1.96 ± 0.021
CACAGG | 1.95 ± 0.026 | 2 ± 0.048
CACAGA | 2.03 ± 0.015 | 2.01 ± 0.022
CACAUU | 2.02 ± 0.026 | 2.02 ± 0.059
CACAUC | 2.035 ± 0.0021 | 2.04 ± 0.025
CACAUG | 2.02 ± 0.01 | 2.018 ± 0.017
GACUCU | 2.033 ± 0.0069 | 2 ± 0.066
GACUCA | 2.004 ± 0.0082 | 1.98 ± 0.028
GACUCG | 2.0319 ± 0.0013 | 2.05 ± 0.032
AACCUC | 2.1092 ± 0.0019 | 2.07 ± 0.052
AACCUG | 1.972 ± 0.0045 | 2.02 ± 0.039
AAGAAU | 1.95 ± 0.0044 | 2.011 ± 0.014
GACACG | 1.971 ± 0.019 | 1.98 ± 0.034
GACACU | 2.032 ± 0.015 | 2.046 ± 0.018
GACGUU | 2 ± 0.022 | 2.01 ± 0.045
GACGUC | 2.065 ± 0.0072 | 2.02 ± 0.054
AAGGAC | 1.966 ± 0.0074 | 1.99 ± 0.037

Variant | normalized RNA/DNA level without ligand (log10) [1] | normalized RNA/DNA level with ligand (log10) [2]
AAGAGC | 1.984 ± 0.0028 | 1.99 ± 0.044
AACGUC | 2.066 ± 0.014 | 2.04 ± 0.021
CACGCU | 2.042 ± 0.0097 | 2.034 ± 0.011
CACGCG | 2 ± 0.023 | 1.997 ± 0.0065
CACGCC | 2.041 ± 0.011 | 1.99 ± 0.047
UACUAG | 1.828 ± 0.016 | 1.99 ± 0.031
UACUAC | 2.022 ± 0.0093 | 2.011 ± 0.0087
UACUAA | 1.973 ± 0.0021 | 2.02 ± 0.0061
AACUCU | 2.0187 ± 0.0003 | 2.02 ± 0.031
AACUCC | 2.06 ± 0.031 | 2.01 ± 0.032
AACUCA | 2.03 ± 0.0039 | 2.003 ± 0.016
UAGAGU | 1.855 ± 0.011 | 1.992 ± 0.016
GACCAC | 2.001 ± 0.012 | 2.002 ± 0.0054
GACCAG | 2.004 ± 0.013 | 2.022 ± 0.012
GACCAU | 2.017 ± 0.0083 | 2.01 ± 0.027
UAGCCC | 2.0516 ± 0.00055 | 2.03 ± 0.006
UAGCCA | 2.034 ± 0.011 | 2.046 ± 0.019
CACCUC | 2.02 ± 0.021 | 1.99 ± 0.027
CACCUU | 2.027 ± 0.0059 | 2.01 ± 0.025
CACCUA | 2.024 ± 0.005 | 2.06 ± 0.038
CACCUG | 2.04 ± 0.023 | 2.02 ± 0.022
AACGCG | 1.909 ± 0.012 | 2.03 ± 0.026
CACUAG | 1.949 ± 0.01 | 2.02 ± 0.034

Variant | normalized RNA/DNA level without ligand (log10) [1] | normalized RNA/DNA level with ligand (log10) [2]
CACUAC | 2.0166 ± 0.00023 | 2.01 ± 0.074
CACUAU | 1.962 ± 0.0042 | 2.01 ± 0.03
CACUAA | 1.961 ± 0.01 | 2.0172 ± 0.0006
GACCGG | 2.08 ± 0.053 | 2.0517 ± 0.0019
GACCGA | 2.09 ± 0.0085 | 2.033 ± 0.011
GACCGC | 2.0652 ± 0.00035 | 2.018 ± 0.011
GACCGU | 2.03 ± 0.029 | 2.01 ± 0.023
GACGCU | 2.05 ± 0.0071 | 2.03 ± 0.021
GACGCG | 1.9961 ± 0.00035 | 2.032 ± 0.015
GACGCA | 2.005 ± 0.0025 | 2.01 ± 0.045
UAGCUU | 2.001 ± 0.012 | 2.02 ± 0.029
UAGCUA | 1.9994 ± 0.0013 | 2.03 ± 0.048
UAGCUC | 2.08 ± 0.017 | 2.0396 ± 0.002
UAGCUG | 1.9 ± 0.021 | 2.026 ± 0.016
GACUGC | 1.998 ± 0.0095 | 2.02 ± 0.037
GACUGU | 1.98 ± 0.011 | 1.98 ± 0.068
GACUGG | 2.023 ± 0.018 | 2.018 ± 0.018
GACUGA | 2.03 ± 0.02 | 2 ± 0.025
UACGGC | 2.05 ± 0.0049 | 2.05 ± 0.063
UACGAA | 1.913 ± 0.0081 | 1.99 ± 0.03
UACACU | 2.017 ± 0.0061 | 2.03 ± 0.037
CAGAAC | 2.003 ± 0.0049 | 2.02 ± 0.056
CAGAAG | 1.925 ± 0.006 | 2.02 ± 0.03

Source: the supplement of paper PMC6757056
